Source: patent US5977056
One block for each substance: values may come before it.

Columns and labels:
[1] = target: fibrinogen (species not stated)
[2] = target: human fibrinogen (in citrated whole blood, plasma or platelet-rich plasma) (human) (UniProt P02671)
[3] = target: fibrinogen (species not stated); remark: listed apart in the source
[4] = target: fibrinogen (species not stated); remark: listed apart in the source

Substance: purified hementin (gland of origin not stated for the experiment) (enzyme)
fibrinogenolysis assay: fibrinogen breakdown products on HPLC (RP300-C8) [1]: 90%
deaggregation of pre-formed ADP-induced platelet aggregates (aggregometer) [2]: 3 min
loss of coagulability of platelet-rich plasma with thrombin [2]: 10 min

Substance: posterior gland hementin (Haementeria ghilianii) (enzyme)
Specific Activity (Units/mg), Stage II material [3]: 11500 Units/mg

Specific Activity (Units/mg), Stage III material [4]: 1400 Units/mg
Substance: anterior gland hementin (Haementeria ghilianii) (enzyme)
